# Biological target: T1, recombinant human IgE, SE44 (human, UniProt P01854-1 1-428)
# T1 construct: also called monoclonal human IgE (SE44); biotinylated SE44
# Test: ELISA titration on plate-coated SE44 (human IgE); Fab detected with biotin-sheep anti-human Fd and Neutra-avidin-AP (Example 6)
# Method: Coating solution was removed and the plates were blocked with 200 uL/well 3% BSA/PBS for 1 hour at 37° C.
# The plates were washed 4× with PBS/0.1% TWEEN® (PBST). 50 uL/well Fab (from 15 mL periplasmic prep) was added starting with a dilution of 1:2 and diluting 3 fold serially in 0.5% BSA/PBS and 0.05% TWEEN®20. Plates were incubated for 2 hours at room temperature.
# T1 sequence (P01854 other isoform, or with tags, fused parts or gaps): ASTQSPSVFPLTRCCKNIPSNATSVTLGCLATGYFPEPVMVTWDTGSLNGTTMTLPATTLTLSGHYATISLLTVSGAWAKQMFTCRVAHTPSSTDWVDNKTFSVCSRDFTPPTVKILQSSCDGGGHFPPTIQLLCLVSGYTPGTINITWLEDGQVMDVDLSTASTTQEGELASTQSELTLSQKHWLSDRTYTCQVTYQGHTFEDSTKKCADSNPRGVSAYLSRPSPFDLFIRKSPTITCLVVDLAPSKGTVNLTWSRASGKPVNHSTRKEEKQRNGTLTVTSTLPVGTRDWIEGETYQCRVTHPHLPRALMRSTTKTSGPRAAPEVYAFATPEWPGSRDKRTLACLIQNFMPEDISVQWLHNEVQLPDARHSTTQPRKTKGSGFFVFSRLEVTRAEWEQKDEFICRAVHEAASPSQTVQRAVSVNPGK
binder,measurement,value
"humanized Fab clone 136 (Fab, V domains shown, Retains 5 murine heavy chain framework residues; 100% human light chain framework; also called Clone ID #136; Humanized clone 136) VH: QVQLVQSGAEVMKPGSSVKVSCKASGYTFSMYWLEWVRQAPGHGLEWMGEISPGTFTTNYNEKFKARVTFTADTSTSTAYMELSSLRSEDTAVYYCARFSHFSGSNYDYFDYWGQGTLVTVSS VL: EIVMTQSPATLSVSPGERATLSCRASQSIGTNIHWYQQKPGQAPRLLIYYASESISGIPARFSGSGSGTEFTLTISSLQSEDFAVYYCQQSDSWPTTFGGGTKVEIK",EC50 (read off the curve),~0.03 µg/mL
